Experiment: Hematology profile (CBC with differential, platelet count) in healthy men;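 on Platelet Count, Median Change from Baseline: Thousands of platelets per mm³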;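 on Platelet Count, Median: Thousands of platelets per mm³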
Format: in vivo, human
Description: Pharmacological Effect: The following evaluations (under efficacy and safety in the protocol) were performed: • Effects on the number of mature blood cells: • 1. CBC (with differential), platelet count, reticulocyte count. • Effects on early hematopoietic progenitor cells and mature lymphocyte subsets in the periphery: • 1. Flow cytometry to evaluate frequency of peripheral blood progenitor cells (eg, CD34^+) and lymphocyte subsets (eg, CD3, CD4, CD8) in peripheral blood. • 2. Collection of blood for later possible culture for progenitor cells (eg, colony forming units-granulocyte/macrophage [CFU-GM]) to evaluate potential effects on CD34^+ hematopoietic progenitor cells in peripheral blood. • 3.
The effect of USB003 on the number of mature blood cells was assessed by the complete blood count with differential, platelet and reticulocyte counts. The effects on early hematopoietic progenitor cells and mature lymphocyte subsets in the periphery were assessed by flow cytometry. In addition, blood was collected and processed to enable culture of progenitors at a later time.
Red blood cell (RBC) count, RBC indices, white blood cell count (WBC) with differential, reticulocyte count, platelet count, hemoglobin (Hb), hematocrit (Hct), plasma hemoglobin, peripheral flow cytometry, including CD34^+, flow cytometry for enumeration of CD3, CD4, and CD8 lymphocytes, and culture for progenitor cells in peripheral blood including colony-forming units-granulocyte/macrophage (CFU-GM).

[1] = 200 μg/kg, N = 9, baseline to Day 20
[2] = 300 μg/kg, N = 8, baseline to Day 8

Asp-Arg-Val-Tyr-Ile-His-Pro [USB003]
Lymphocytes shift N-L, number of subjects [1]: — (“—” = 0)
Monocytes shift H-N, number of subjects [1]: — (“—” = 0)
Monocytes shift L-N, number of subjects [1]: — (“—” = 0)
Monocytes shift N-H, number of subjects [1]: — (“—” = 0)
Monocytes shift N-L, number of subjects [1]: — (“—” = 0)
Plasma Hemoglobin shift H-N, number of subjects [1]: — (“—” = 0)
Plasma Hemoglobin shift L-N, number of subjects [1]: — (“—” = 0)
Plasma Hemoglobin shift N-H, number of subjects [1]: 2
Plasma Hemoglobin shift N-L, number of subjects [1]: — (“—” = 0)
Platelet Count shift H-N, number of subjects [1]: — (“—” = 0)
Platelet Count shift L-N, number of subjects [1]: — (“—” = 0)
Platelet Count shift N-H, number of subjects [1]: 1
Platelet Count shift N-L, number of subjects [1]: — (“—” = 0)
RBC shift H-N, number of subjects [1]: — (“—” = 0)
RBC shift L-N, number of subjects [1]: — (“—” = 0)
RBC shift N-H, number of subjects [1]: — (“—” = 0)
RBC shift N-L, number of subjects [1]: — (“—” = 0)
RDW shift H-N, number of subjects [1]: — (“—” = 0)
RDW shift L-N, number of subjects [1]: — (“—” = 0)
RDW shift N-H, number of subjects [1]: 1
RDW shift N-L, number of subjects [1]: — (“—” = 0)
Segmented Neutrophils shift H-N, number of subjects [1]: 1
Segmented Neutrophils shift L-N, number of subjects [1]: — (“—” = 0)
Segmented Neutrophils shift N-H, number of subjects [1]: — (“—” = 0)
Segmented Neutrophils shift N-L, number of subjects [1]: — (“—” = 0)
WBC shift H-N, number of subjects [1]: — (“—” = 0)
WBC shift L-N, number of subjects [1]: — (“—” = 0)
WBC shift N-H, number of subjects [1]: — (“—” = 0)
WBC shift N-L, number of subjects [1]: — (“—” = 0)
Absolute Neutrophils, Median (200 μg/kg, Baseline): 3.00 thousands/mm^3
Hematocrit, Median (200 μg/kg, Baseline): 46.50%
Hemoglobin, Median (200 μg/kg, Baseline): 15.30 g/dL
Lymphocytes, Median (200 μg/kg, Baseline): 35.80%
Platelet Count, Median (200 μg/kg, Baseline): 263.0 thousands/mm^3
WBC, Median (200 μg/kg, Baseline): 5.60 thousands/mm^3
Absolute Neutrophils, Median (200 μg/kg, Day 8): 3.60 thousands/mm^3
Absolute Neutrophils, Median Change from Baseline (200 μg/kg, Day 8): 0.45 thousands/mm^3
Hematocrit, Median (200 μg/kg, Day 8): 43.65%
Hematocrit, Median Change from Baseline (200 μg/kg, Day 8): −1.65%
Hemoglobin, Median (200 μg/kg, Day 8): 15.10 g/dL
Hemoglobin, Median Change from Baseline (200 μg/kg, Day 8): -0.20 g/dL
Lymphocytes, Median (200 μg/kg, Day 8): 32.40%
Lymphocytes, Median Change from Baseline (200 μg/kg, Day 8): −2.25%
Platelet Count, Median (200 μg/kg, Day 8): 242.0 thousands/mm^3
Platelet Count, Median Change from Baseline (200 μg/kg, Day 8): 1.0 thousands/mm^3
WBC, Median (200 μg/kg, Day 8): 6.65 thousands/mm^3
WBC, Median Change from Baseline (200 μg/kg, Day 8): 0.35 thousands/mm^3
Absolute Neutrophils, Median (200 μg/kg, Day 20): 3.80 thousands/mm^3
Absolute Neutrophils, Median Change from Baseline (200 μg/kg, Day 20): 0.20 thousands/mm^3
Hematocrit, Median (200 μg/kg, Day 20): 43.80%
Hematocrit, Median Change from Baseline (200 μg/kg, Day 20): −1.50%
Hemoglobin, Median (200 μg/kg, Day 20): 14.50 g/dL
Hemoglobin, Median Change from Baseline (200 μg/kg, Day 20): -0.70 g/dL
Lymphocytes, Median (200 μg/kg, Day 20): 31.50%
Lymphocytes, Median Change from Baseline (200 μg/kg, Day 20): −1.80%
Platelet Count, Median (200 μg/kg, Day 20): 250.0 thousands/mm^3
Platelet Count, Median Change from Baseline (200 μg/kg, Day 20): −5 thousands/mm^3
WBC, Median (200 μg/kg, Day 20): 6.20 thousands/mm^3
WBC, Median Change from Baseline (200 μg/kg, Day 20): 0.40 thousands/mm^3
WBC concentration (300 ug/kg group, at 20 days): relative increase
Absolute Eosinophils shift H-N, number of subjects [2]: — (“—” = 0)
Absolute Eosinophils shift L-N, number of subjects [2]: — (“—” = 0)
Absolute Eosinophils shift N-H, number of subjects [2]: — (“—” = 0)
Absolute Eosinophils shift N-L, number of subjects [2]: — (“—” = 0)
Absolute Reticulocytes shift H-N, number of subjects [2]: — (“—” = 0)
Absolute Reticulocytes shift L-N, number of subjects [2]: — (“—” = 0)
Absolute Reticulocytes shift N-H, number of subjects [2]: 1
Absolute Reticulocytes shift N-L, number of subjects [2]: — (“—” = 0)
Eosinophils shift H-N, number of subjects [2]: 1

From patent US20090227507A1, “Angiotensin (1-7) Dosage Forms and Uses Thereof” (UNIVERSITY OF SOUTHERN CALIFORNIA, priority 2008, published 2009)
